In patent US9657091 (AC IMMUNE S A, dated 2017):
Residue numbers refer to the chain shown, from its start.

T1: Tau-derived peptide Tau401-418, not phosphorylated (T4.6) (human)
T1 construct: it is called the non-phosphorylated version of the same peptide as T4.5 (Tau401-418); also called corresponding non-phosphorylated Tau peptide
T1 peptide: GDTSPRHLSNVSSTGSID

B1: humanized antibody hACl-36-2B6-Ab1 (IgG4) (antibody, V domains shown)
VH: QVQLVQSGAEVKKPGSSVKVSCKASGYTFTDYYMNWVRQAPGQGLEWIGDINPNRGGTTYNQKFKGRVTITVDKSTSTAYMELSSLRSEDTAVYYCASYYAVGYWGQGTTVTVSS
VL: DIVMTQTPLSLPVTPGEPASISCRSSQSLVHSHGKTYLHWYLQKPGQSPQLLIYKVSNRFSGVPDRFSGSGSGTDFTLKISRVEAEDVGVYFCSQTAHFPYTFGGGTKVEIKR
notes: Humanized IgG4, kappa; also called 2B6A10C11
B2: humanized antibody hACl-36-3A8-Ab1 (IgG4) (antibody, V domains shown)
VH: B1 VH
VL: B1 VL with S28R
notes: Humanized IgG4, kappa; Tested as a supernatant containing the antibody; also called 3A8A12G7

What was measured:
[1] = target: T1, Tau-derived peptide Tau401-418, not …; assay: direct ELISA on plate-coated peptide (10 ug/mL), AP-conjugated anti-human IgG, O.D. at 405 nm
Experimental: Binding of hACl-36-2B6-Ab1 and hACl-36-3A8-Ab1 to T4 Peptides by ELISA 1.1. Method 1.1.1 Phospho-Tau Binding Assay To test the binding of the antibody to pTau, an ELISA assay was used. Nunc MaxiSorp 96-well plates (Nunc, Denmark) were coated with 10 µg/mL of the Tau-derived peptide Tau401-418, phosphorylated (T4.5) or not (T4.6) on serine 409. Coating was done overnight in phosphate-buffered saline (PBS; Sigma-Aldrich, Switzerland) at 4° C. Plates were washed thoroughly with 0.05% Tween20/PBS and then blocked with 1% bovine serum albumin (BSA; Sigma-Aldrich) in 0.05% Tween20/PBS for 1 hr at 37° C. The supernatant containing the antibody being tested was then added in 8 two-fold dilutions, starting at 0.5 µg/mL, and incubated for 2 hr at 37° C. Plates were then washed as described previously, and an alkaline phosphatase (AP) conjugated goat anti-human IgG (Jackson ImmunoResearch Laboratories, England) was added at 1/2,000 dilution in 0.05% Tween20/PBS for 2 hr at 37° C. After washing, plates were incubated with p-nitrophenyl phosphate disodium hexahydrate (pNPP; Sigma-Aldrich, Switzerland) phosphatase substrate solution, and read at 405 nm following 1 hr incubation using a microplate reader (Tecan, Switzerland). Results are expressed as optical density (O.D.). […]

[2] = target: Tau-derived peptide Tau401-418, phosphorylated (T4.5) (human); assay: SPR (Biacore T100), antibody captured via Protein G on CM7 chip, peptide T4.5 as analyte 50-800 nM, single-cycle kinetics, 1:1 Langmuir fit
Chain of Tau-derived peptide Tau401-418, phosphorylated (T4.5) (human) (peptide, as listed by the source): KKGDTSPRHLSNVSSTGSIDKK

| Binder | binding result [1] | Kd [2] | koff [2] | kon [2] |
| --- | --- | --- | --- | --- |
| B1 | no binding (tested: 0.5 ug/mL) | 67 nM | 0.0036 s⁻¹ | 54000 M⁻¹ s⁻¹ |
| B2 | no binding (tested: 0.5 ug/mL) | – | – | – |
